Test results as given in patent US20240352105A1, “COMPOSITIONS AND METHODS FOR NEUTRALIZING ANTIGENS” (PACAGEN, INC, priority 2023, published 2024).
Several values for one entry are separate records, joined by “and”; a condition that tells them apart may be missing. Equal values may be shown once.

Legend:
[1] = biological target: Can f2-sumo-His (dog (Canis familiaris)) (UniProt O18874); test: serum ELISA, 1:1K, Alpaca 1 block
[2] = biological target: T1, recombinant His-tagged Der p2 (dust mite, UniProt P49278 18-146); test: serum ELISA, 1:1K, Alpaca 1 block
T1 construct: also called Der p2-His; Der p2-HIS; not shown: His tag
T1 sequence (looked up): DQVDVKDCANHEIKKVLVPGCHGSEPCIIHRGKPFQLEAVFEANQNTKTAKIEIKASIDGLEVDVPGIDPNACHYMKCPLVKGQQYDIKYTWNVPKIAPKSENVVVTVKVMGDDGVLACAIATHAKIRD

[3] = biological target: recombinant His-tagged Can f1 (dog (Canis familiaris)) (UniProt O18873); test: serum ELISA, 1:1K, Alpaca 1 block
Chain of recombinant His-tagged Can f1 (dog (Canis familiaris)) (O18873 19-174 limits assumed): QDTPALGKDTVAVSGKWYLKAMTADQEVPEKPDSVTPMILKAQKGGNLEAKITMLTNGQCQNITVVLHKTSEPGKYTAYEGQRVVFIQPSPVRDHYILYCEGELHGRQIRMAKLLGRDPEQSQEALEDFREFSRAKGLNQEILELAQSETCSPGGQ

[4] = biological target: recombinant His-tagged Can f2 (dog (Canis familiaris)) (UniProt O18874); test: serum ELISA, 1:1K, Alpaca 1 block
Chain of recombinant His-tagged Can f2 (dog (Canis familiaris)) (O18874 19-180 limits assumed): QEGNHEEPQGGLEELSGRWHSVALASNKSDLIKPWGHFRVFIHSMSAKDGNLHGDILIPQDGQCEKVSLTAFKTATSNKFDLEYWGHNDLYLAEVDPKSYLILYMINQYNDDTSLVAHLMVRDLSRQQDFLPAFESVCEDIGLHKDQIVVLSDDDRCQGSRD

[5] = biological target: Can f2-sumo-His (dog (Canis familiaris)) (UniProt O18874); test: serum ELISA, 1:2K, Alpaca 1 block
[6] = biological target: T1, recombinant His-tagged Der p2; test: serum ELISA, 1:2K, Alpaca 1 block
[7] = biological target: recombinant His-tagged Can f2 (dog (Canis familiaris)) (UniProt O18874); test: serum ELISA, 1:2K, Alpaca 1 block
[8] = biological target: Can f2-sumo-His (dog (Canis familiaris)) (UniProt O18874); test: serum ELISA, 1:2K, Alpaca 2 block
[9] = biological target: T1, recombinant His-tagged Der p2; test: serum ELISA, 1:2K, Alpaca 2 block
[10] = biological target: recombinant His-tagged Can f1 (dog (Canis familiaris)) (UniProt O18873); test: serum ELISA, 1:2K, Alpaca 2 block
[11] = biological target: recombinant His-tagged Can f2 (dog (Canis familiaris)) (UniProt O18874); test: serum ELISA, 1:2K, Alpaca 2 block
[12] = biological target: Can f2-sumo-His (dog (Canis familiaris)) (UniProt O18874); test: serum ELISA, 1:4k, Alpaca 1 block
[13] = biological target: T1, recombinant His-tagged Der p2; test: serum ELISA, 1:4k, Alpaca 1 block
[14] = biological target: recombinant His-tagged Can f1 (dog (Canis familiaris)) (UniProt O18873); test: serum ELISA, 1:4k, Alpaca 1 block
[15] = biological target: recombinant His-tagged Can f2 (dog (Canis familiaris)) (UniProt O18874); test: serum ELISA, 1:4k, Alpaca 1 block
[16] = biological target: Can f2-sumo-His (dog (Canis familiaris)) (UniProt O18874); test: serum ELISA, 1:4k, Alpaca 2 block
[17] = biological target: T1, recombinant His-tagged Der p2; test: serum ELISA, 1:4k, Alpaca 2 block
[18] = biological target: recombinant His-tagged Can f1 (dog (Canis familiaris)) (UniProt O18873); test: serum ELISA, 1:4k, Alpaca 2 block
[19] = biological target: recombinant His-tagged Can f2 (dog (Canis familiaris)) (UniProt O18874); test: serum ELISA, 1:4k, Alpaca 2 block
[20] = biological target: Can f2-sumo-His (dog (Canis familiaris)) (UniProt O18874); test: serum ELISA, 1:8K, Alpaca 1 block
[21] = biological target: T1, recombinant His-tagged Der p2; test: serum ELISA, 1:8K, Alpaca 1 block
[22] = biological target: recombinant His-tagged Can f1 (dog (Canis familiaris)) (UniProt O18873); test: serum ELISA, 1:8K, Alpaca 1 block
[23] = biological target: Can f2-sumo-His (dog (Canis familiaris)) (UniProt O18874); test: serum ELISA, 1:8K, Alpaca 2 block
[24] = biological target: T1, recombinant His-tagged Der p2; test: serum ELISA, 1:8K, Alpaca 2 block
[25] = biological target: recombinant His-tagged Can f1 (dog (Canis familiaris)) (UniProt O18873); test: serum ELISA, 1:8K, Alpaca 2 block
[26] = biological target: recombinant His-tagged Can f2 (dog (Canis familiaris)) (UniProt O18874); test: serum ELISA, 1:8K, Alpaca 2 block
[27] = biological target: Can f2-sumo-His (dog (Canis familiaris)) (UniProt O18874); test: serum ELISA, 1:16K, Alpaca 1 block
[28] = biological target: T1, recombinant His-tagged Der p2; test: serum ELISA, 1:16K, Alpaca 1 block
[29] = biological target: recombinant His-tagged Can f1 (dog (Canis familiaris)) (UniProt O18873); test: serum ELISA, 1:16K, Alpaca 1 block
[30] = biological target: recombinant His-tagged Can f2 (dog (Canis familiaris)) (UniProt O18874); test: serum ELISA, 1:16K, Alpaca 1 block
[31] = biological target: Can f2-sumo-His (dog (Canis familiaris)) (UniProt O18874); test: serum ELISA, 1:16K, Alpaca 2 block
[32] = biological target: T1, recombinant His-tagged Der p2; test: serum ELISA, 1:16K, Alpaca 2 block
[33] = biological target: recombinant His-tagged Can f1 (dog (Canis familiaris)) (UniProt O18873); test: serum ELISA, 1:16K, Alpaca 2 block
[34] = biological target: recombinant His-tagged Can f2 (dog (Canis familiaris)) (UniProt O18874); test: serum ELISA, 1:16K, Alpaca 2 block
[35] = biological target: Can f2-sumo-His (dog (Canis familiaris)) (UniProt O18874); test: serum ELISA, 1:64K, Alpaca 2 block
[36] = biological target: T1, recombinant His-tagged Der p2; test: serum ELISA, 1:64K, Alpaca 2 block
[37] = biological target: recombinant His-tagged Can f1 (dog (Canis familiaris)) (UniProt O18873); test: serum ELISA, 1:64K, Alpaca 2 block
[38] = biological target: recombinant His-tagged Can f2 (dog (Canis familiaris)) (UniProt O18874); test: serum ELISA, 1:64K, Alpaca 2 block

Chain of Can f2-sumo-His (dog (Canis familiaris)) (O18874 19-180): as the sequence (O18874 19-180 limits assumed) above

## Negative serum taken from naïve alpacas
[1]
  OD at 450 nm: 0.119 OD and 0.111 OD
[2]
  OD at 450 nm: 0.246 OD and 0.255 OD
[3]
  OD at 450 nm: 0.294 OD and 0.342 OD
[4]
  OD at 450 nm: 0.128 OD and 0.133 OD
[5]
  OD at 450 nm: 0.088 OD and 0.085 OD
[6]
  OD at 450 nm: 0.149 OD and 0.154 OD
[7]
  OD at 450 nm: 0.093 OD and 0.099 OD
[8]
  OD at 450 nm: 0.119 OD and 0.113 OD
[9]
  OD at 450 nm: 0.152 OD and 0.15 OD
[10]
  OD at 450 nm: 0.185 OD and 0.179 OD
[11]
  OD at 450 nm: 0.143 OD and 0.133 OD
[12]
  OD at 450 nm: 0.071 OD and 0.072 OD
[13]
  OD at 450 nm: 0.119 OD and 0.116 OD
[14]
  OD at 450 nm: 0.137 OD and 0.147 OD
[15]
  OD at 450 nm: 0.077 OD and 0.075 OD
[16]
  OD at 450 nm: 0.09 OD and 0.081 OD
[17]
  OD at 450 nm: 0.113 OD
[18]
  OD at 450 nm: 0.122 OD
[19]
  OD at 450 nm: 0.108 OD and 0.101 OD
[20]
  OD at 450 nm: 0.072 OD
[21]
  OD at 450 nm: 0.104 OD and 0.099 OD
[22]
  OD at 450 nm: 0.116 OD and 0.117 OD
[23]
  OD at 450 nm: 0.083 OD and 0.079 OD
[24]
  OD at 450 nm: 0.101 OD and 0.103 OD
[25]
  OD at 450 nm: 0.108 OD and 0.111 OD
[26]
  OD at 450 nm: 0.099 OD and 0.084 OD
[27]
  OD at 450 nm: 0.071 OD
[28]
  OD at 450 nm: 0.099 OD and 0.093 OD
[29]
  OD at 450 nm: 0.101 OD and 0.11 OD
[30]
  OD at 450 nm: 0.075 OD and 0.076 OD
[31]
  OD at 450 nm: 0.074 OD and 0.081 OD
[32]
  OD at 450 nm: 0.091 OD and 0.089 OD
[33]
  OD at 450 nm: 0.101 OD and 0.098 OD
[34]
  OD at 450 nm: 0.08 OD and 0.075 OD
[35]
  OD at 450 nm: 0.07 OD and 0.057 OD
[36]
  OD at 450 nm: 0.071 OD and 0.079 OD
[37]
  OD at 450 nm: 0.088 OD and 0.087 OD
[38]
  OD at 450 nm: 0.07 OD and 0.062 OD
